One substance from publication PMC1343571 can be followed below.

Assay [1] concerns the target Human surfactant protein-A (SP-A) (human) (UniProt Q8IWL2).
Assay [2] shares this target. Nature of the assay: SEC; gel filtration HPLC, two Biosep-SEC-S 4000 columns in series; SP-A (1.62 mg/ml) and α1-AT (1 mg/ml), 1:50 molar ratio, incubated 24 hrs at 37°C in phosphate buffer; eluted with 100 mM Na2HPO4, 2 mM CaCl2, pH 6.8.

As to “Wild-type α1-antitrypsin (M α1-AT) (from UniProt P01009 25-418) (natural protein)”, the turnover number per inactivation of HNE, unmodified SP-A with α1-AT in assay [1] was found to be 24. The stoichiometry N (molecules of α1-AT per molecule of SP-A) in assay [2] came to 18.
